{"source": "the nanobody polyreactivity screen of Harvey et al. (2022)"}
{"test": "yeast display, Sf9 membrane polyspecificity reagent, FACS + sequencing; frameworks hold sequencing errors", "method_in_brief": "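After 36–48 hours of galactose induction, yeast (Saccharomyces cerevisiae BJ5465) displaying a synthetic nanobody library were stained at 4 °C for 1 hour with 10% biotinylated, detergent-solubilized Sf9 membrane reagent. Streptavidin microbeads enriched the stained cells before FACS sorting into low and high (top ~1%) gates on anti-HA and streptavidin fluorescence. Each clone's polyreactivity label reflects its gate of origin.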"}
{"sequence": "QVQLVESGGGLVQAGGSLRLSCAASGFIFKSNAMGWYRQAPGKERELVAAITKRGGSTYYADSVKGRFTISRDNAKNTVYLQMNSLKPEDTAVYYCAVRKPYSRYGGFDYWGQGTQVTVSS", "polyreactivity (PSR sort gate)": "high polyreactivity"}
{"sequence": "QVQLVESGGGLVQAGGSLRLSCAASGSTLAVYAMGSYRQAPGKERELVAAISKRGGTTYYADSVKGRFTISRDNAKNTVYLQMYSLKPDDTAVYYCARESYYRGNYDYDYWGQGTQVTVSS", "polyreactivity (PSR sort gate)": "high polyreactivity"}
{"sequence": "QVQLVESGGGLVQAGGSLRLSCAASGLTFPSYAMGWYRQAPGKERELVAAISSGDSTNYADSVKGRFTISRDNAKNTVYLQMNSLKPEDTAVYYCAVGLPHGGRRLYGSWYRFDYWGQGTQVTVSS", "polyreactivity (PSR sort gate)": "low polyreactivity"}
{"sequence": "QVQLVESGGGLVQAGGSLRLSCAASGLTFYRNAMGWYTQAPGKERELVATISSSGGSTYYADSVKGRFTISRDNEKNTVYLQMNSLKPEDTAVYYCNARYYSYGPGKTVRYRTGYYGYWGQGTQVTVSS", "polyreactivity (PSR sort gate)": "high polyreactivity"}
{"sequence": "QVHLVESGGGLVQAGGSLRLSCAASGSTIYYNAMGWYRQAPGKERELVAAISKSSSRTYYADSVKGRFTISRDNAKNTVYLQMNSLKTEDTAVYFCAADAVYFHFDYWGQGTQVTVSS", "polyreactivity (PSR sort gate)": "high polyreactivity"}
{"sequence": "QVQLVESGGGLVKAGGSLRLSCAASGFIFRTYAMGWYRQAPRKERELVAAITGRGGTTYYADSVKGRFTISRDHAKNTVYLQMNSLKAEDTAVYYCADRSRDYNYNPYDYWGLGTQVTVSS", "polyreactivity (PSR sort gate)": "high polyreactivity"}
{"sequence": "QVQLVESGGGLVQAGGSLRLSCAASGRIFRDNAMGWYRQAPGKERELVAAITSSGGSTNYADSVKGRFTISRDNAKNTVYLQMNSLKPEDTAVYYCNTDRLGAARYDYWGQGTQVTVSS", "polyreactivity (PSR sort gate)": "low polyreactivity"}
{"sequence": "QVQLVESGGGLVQAGGSLRLSCAASGSIFSYYAMGWYRQAPGKERELVAAISGDSGRTYYADSVKGRFTISRDNAKNTVYLQMNSLKPEDTAVYYCNARVAYRYRTGYDYWGQGTQVTVSS", "polyreactivity (PSR sort gate)": "high polyreactivity"}
{"sequence": "QVQLVESGGGLVQAGGSLRLSCAASGLTFEDNDMGWYRQAPGKERELVAAISSAGSTSYADSVKGRFTISRDNAKNTVYLQRNSLKPDDTAVYYCAKDNSPSYTPAQLDGGDDYWGQGTQVTVSS", "polyreactivity (PSR sort gate)": "low polyreactivity"}
{"sequence": "QVQLVESGGGLVQAGGSLRLSCAASGSIFTQYTMGWYRQAPGKERELVAAISRSGGRTYYADSVKGRFTISRDIAKNTVYLQMNSLKPEDTAVYYCAAEYTDKYEYWGQGTQVTVSS", "polyreactivity (PSR sort gate)": "high polyreactivity"}
{"sequence": "QVQLEESGGGLGQAGGSLRLTCAASGSIFRQYAMGWYRQAPGKERDLVATISRSGGSTYYADSVKGRFTISRDNAKNTVYLQLNSLKPEDTAVYYCAASRYNKSYREWWVGSWGQGTQVTVSS", "polyreactivity (PSR sort gate)": "high polyreactivity"}
{"sequence": "QVQLVESGGGLVQAGGSLRLSCAASGSIIPSYSMGWYRQAPGKERDLVATIGRGGTTNYADSVKGRFTISLDNAKNTVYLQMNSLKPEDTAVYYCYAERIWRYKYGYDYWGQGSQVTVSS", "polyreactivity (PSR sort gate)": "high polyreactivity"}
{"sequence": "QVQLVESAGGLVQAGGSLRLSCAASGRIFQFYAMGWYRQAPGKERELVATITRGGSTYYADSVKGRFTISRDNAKNTVYLQMNSLKPEDTAVYYCAAGFAGKYYWGQGTQVTVSS", "polyreactivity (PSR sort gate)": "high polyreactivity"}
{"sequence": "QVQLVESGGGLVKAGGSLRLSCAAYGFTIVYYAMGWYIQEHGKERELVAAISATGGRTYYADSVKGRFTISRDNAKNTVYLQMNSLKPEDTAVYYCATRRRVLYGYDYWGQGTQVTVSS", "polyreactivity (PSR sort gate)": "high polyreactivity"}
{"sequence": "QVQLEETGGGLVQAGGSLRLSCAASGFTFYQYAMGWYRKAPRKERELVAAISSSGTSTYYADSVKGRFTISRDNAKNTVYLQMNSLKPEDTAVYYCAARRYKLFYWGQGTQVTVSS", "polyreactivity (PSR sort gate)": "low polyreactivity"}
{"sequence": "QVQLVESGGGLVQAGGSLRLSSAASGSTFYWYTMGWYRQAPGKERELVARISKRGGSTYYADSVKGRFTISRDNAKNTVYLQMNSLKPEDTAVYYCNATSRTVGFGYWGQGTQVTVSS", "polyreactivity (PSR sort gate)": "high polyreactivity"}
{"sequence": "QVQLVESGGGLVQAGGSLRLSCAASGRIFADYAMGWYRQAPGKERELVADIRQSGGRTYYADSVKGRFTISRDNAKNTVYLQMNSLNPEDTAVYYCATDYGSWGDYSGKYDYWGQGTQVTVSS", "polyreactivity (PSR sort gate)": "low polyreactivity"}
